The labels stand for the following.
B2: PBP1b (aa58-804) (enzyme)
chain: KPRGKRGWLWLLLKLAIVFAVLIAIYGVYLDQKIRSRIDGKVWQLPAAVYGRMVNLEPDMTISKNEMVKLLEATQYRQVSKMTRPGEFTVQANSIEMIRRPFDFPDSKEGQVRARLTFDGDHLATIVNMENNRQFGFFRLDPRLITMISSPNGEQRLFVPRSGFPDLLVDTLLATEDRHFYEHDGISLYSIGRAVLANLTAGRTVQGASTLTQQLVKNLFLSSERSYWRKANEAYMALIMDARYSKDRILELYMNEVYLGQSGDNEIRGFPLASLYYFGRPVEELSLDQQALLVGMVKGASIYNPWRNPKLALERRNLVLRLLQQQQIIDQELYDMLSARPLGVQPRGGVISPQPAFMQLVRQELQAKLGDKVKDLSGVKIFTTFDSVAQDAAEKAAVEGIPALKKQRKLSDLETAIVVVDRFSGEVRAMVGGSEPQFAGYNRAMQARRSIGSLAKPATYLTALSQPKIYRLNTWIADAPIALRQPNGQVWSPQNDDRRYSESGRVMLVDALTRSMNVPTVNLGMALGLPAVTETWIKLGVPKDQLHPVPAMLLGALNLTPIEVAQAFQTIASGGNRAPLSALRSVIAEDGKVLYQSFPQAERAVPAQAAYLTLWTMQQVVQRGTGRQLGAKYPNLHLAGKTGTTNNNVDTWFAGIDGSTVTITWVGRDNNQPTKLYGASGAMSIYQRYLANQTPTPLNLVPPEDIADMGVDYDGNFVCSGGMRILPVWTSDPQSLCQQSEMQQQPS

Common to all, as to assay: BLI
Test [1] concerns the target B2.
In test [2] the target is FtsB-FtsL-FtsQ complex, analyte of the BLI assay (E. coli strain K12, UniProt P0A6S5 1-103; P0AEN4 1-121; P06136 1-276, S3N | R4K | V5L).
For test [3], the target named is FtsB-FtsL-FtsQ complex, His-tagged (E. coli strain K12, UniProt P0A6S5 1-103; P0AEN4 1-121; P06136 1-276, S3N | R4K | V5L).

Consider two molecules from article PMC10076392 (2023).

A word on the Kd: it is a measure of binding affinity in units of concentration. High values mean a looser complex, low ones a tighter complex.

B1: FtsW-FtsI complex, His-tagged (complex)
chain 1: MRLSLPRLKMPRLPGFSILVWISTALKGWVMGSREKDTDSLIMYDRTLLWLTFGLAAIGFIMVTSASMPIGQRLTNDPFFFAKRDGVYLILAFILAIITLRLPMEFWQRYSATMLLGSIILLMIVLVVGSSVKGASRWIDLGLLRIQPAELTKLSLFCYIANYLVRKGDEVRNNLRGFLKPMGVILVLAVLLLAQPDLGTVVVLFVTTLAMLFLAGAKLWQFIAIIGMGISAVVLLILAEPYRIRRVTAFWNPWEDPFGSGYQLTQSLMAFGRGELWGQGLGNSVQKLEYLPEAHTDFIFAIIGEELGYVGVVLALLMVFFVAFRAMSIGRKALEIDHRFSGFLACSIGIWFSFQALVNVGAAAGMLPTKGLTLPLISYGGSSLLIMSTAIMMLLRIDYETRLEKAQAFVRGSR
chain 2: MKAAAKTQKPKRQEEHANFISWRFALLCGCILLALAFLLGRVAWLQVISPDMLVKEGDMRSLRVQQVSTSRGMITDRSGRPLAVSVPVKAIWADPKEVHDAGGISVGDRWKALANALNIPLDQLSARINANPKGRFIYLARQVNPDMADYIKKLKLPGIHLREESRRYYPSGEVTAHLIGFTNVDSQGIEGVEKSFDKWLTGQPGERIVRKDRYGRVIEDISSTDSQAAHNLALSIDERLQALVYRELNNAVAFNKAESGSAVLVDVNTGEVLAMANSPSYNPNNLSGTPKEAMRNRTITDVFEPGSTVKPMVVMTALQRGVVRENSVLNTIPYRINGHEIKDVARYSELTLTGVLQKSSNVGVSKLALAMPSSALVDTYSRFGLGKATNLGLVGERSGLYPQKQRWSDIERATFSFGYGLMVTPLQLARVYATIGSYGIYRPLSITKVDPPVPGERVFPESIVRTVVHMMESVALPGGGGVKAAIKGYRIAIKTGTAKKVGPDGRYINKYIAYTAGVAPASQPRFALVVVINDPQAGKYYGGAVSAPVFGAIMGGVLRTMNIEPDALTTGDKNEFV
For the molecule B1, the Kd came out at 530 nM in test [1] and 180 nM in test [2].
With B2, the Kd in test [3] amounted to 930 nM.
